{"source": "paper PMC10139975", "about": "(iScience, 2023)", "target": "T1, GPR110 F663S mutant (C-terminal HA tag) (human, UniProt Q5T601-1 20-910, F663S)", "T1 sequence (looked up)": "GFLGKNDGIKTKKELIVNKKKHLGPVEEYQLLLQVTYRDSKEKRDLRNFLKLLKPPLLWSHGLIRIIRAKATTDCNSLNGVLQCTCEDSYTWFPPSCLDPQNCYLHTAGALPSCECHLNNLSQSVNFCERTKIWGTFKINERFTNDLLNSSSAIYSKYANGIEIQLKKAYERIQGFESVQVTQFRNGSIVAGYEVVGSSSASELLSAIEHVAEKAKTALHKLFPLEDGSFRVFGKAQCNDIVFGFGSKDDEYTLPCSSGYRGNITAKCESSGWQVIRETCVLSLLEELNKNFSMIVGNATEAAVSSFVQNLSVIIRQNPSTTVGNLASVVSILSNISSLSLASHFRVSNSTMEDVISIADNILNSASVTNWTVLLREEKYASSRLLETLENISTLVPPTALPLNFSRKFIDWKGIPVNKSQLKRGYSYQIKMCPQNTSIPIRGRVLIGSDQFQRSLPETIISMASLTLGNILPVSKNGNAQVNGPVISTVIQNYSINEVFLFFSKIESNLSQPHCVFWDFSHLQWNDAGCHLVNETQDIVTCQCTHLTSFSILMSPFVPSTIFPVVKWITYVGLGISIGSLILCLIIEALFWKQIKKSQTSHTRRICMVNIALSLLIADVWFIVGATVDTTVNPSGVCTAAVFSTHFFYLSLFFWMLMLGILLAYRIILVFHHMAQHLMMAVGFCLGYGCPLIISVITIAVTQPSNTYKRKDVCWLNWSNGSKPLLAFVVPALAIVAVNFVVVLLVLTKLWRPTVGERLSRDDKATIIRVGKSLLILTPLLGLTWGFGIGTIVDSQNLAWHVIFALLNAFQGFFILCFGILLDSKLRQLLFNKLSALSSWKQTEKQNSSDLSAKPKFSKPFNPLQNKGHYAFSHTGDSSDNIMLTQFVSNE", "test": "cross-linking + affinity purification with mass spectrometry"}
{"binder": "occludin (tight junction protein) (natural protein, human (endogenous in HEK293), UniProt Q16625 1-522, looked up) MSSRPLESPPPYRPDEFKPNHYAPSNDIYGGEMHVRPMLSQPAYSFYPEDEILHFYKWTSPPGVIRILSMLIIVMCIAIFACVASTLAWDRGYGTSLLGGSVGYPYGGSGFGSYGSGYGYGYGYGYGYGGYTDPRAAKGFMLAMAAFCFIAALVIFVTSVIRSEMSRTRRYYLSVIIVSAILGIMVFIATIVYIMGVNPTAQSSGSLYGSQIYALCNQFYTPAATGLYVDQYLYHYCVVDPQEAIAIVLGFMIIVAFALIIFFAVKTRRKMDRYDKSNILWDKEHIYDEQPPNVEEWVKNVSAGTQDVPSPPSDYVERVDSPMAYSSNGKVNDKRFYPESSYKSTPVPEVVQELPLTSPVDDFRQPRYSSGGNFETPSKRAPAKGRAGRSKRTEQDHYETDYTTGGESCDELEEDWIREYPPITSDQQRQLYKRNFDTGLQEYKSLQSELDEINKELSRLDKELDDYREESEEYMAAADEYNRLKQVKGSADYKSKKNHCKQLKSKLSHIKKMVGDYDRQKT", "values": [{"measurement": "fold less than with WT GPR110 (label-free MS quantitation)", "value": 5, "unit": "fold"}]}
